Experimental data from patent US20220267421A1 (INVOX PHARMA, published 2022).
Positions count from the first letter of the chain named.

T1: cynomolgus MSLN-His-Avi (cynomolgus, single biotin (BirA) in the biotinylated form)
T1 construct: Monomeric, made in HEK293-6E; also called cMSLN-His-Avi; cyno MSLN-His-Avi
T1 chain: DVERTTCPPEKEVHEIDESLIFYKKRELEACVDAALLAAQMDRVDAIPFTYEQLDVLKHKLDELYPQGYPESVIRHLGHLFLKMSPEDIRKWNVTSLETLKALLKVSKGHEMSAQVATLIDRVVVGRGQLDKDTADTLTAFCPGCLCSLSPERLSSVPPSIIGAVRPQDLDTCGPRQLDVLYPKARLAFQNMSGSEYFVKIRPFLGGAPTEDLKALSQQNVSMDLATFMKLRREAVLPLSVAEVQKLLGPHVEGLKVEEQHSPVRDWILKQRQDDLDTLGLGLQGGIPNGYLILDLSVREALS

B1: FS22-053-008-AA/FS28-024-051 mAb^2 (bispecific antibody, human IgG1, kappa, L234A L235A, V domains shown)
VH: EVQLLESGGGLVQPGGSLRLSCAASGFTLSYSSMSWVRQAPGKGLEWVSFITPSTGYTHYADSVKGRFTISRDNSKNTLYLQMNSLRAEDTAVYYCARRALIFDYWGQGTLVTVSS
VL: EIVLTQSPGTLSLSPGERATLSCRASQSVSSSYLAWYQQKPGQAPRLLIYGASSRATGIPDRFSGSGSGTDFTLTISRLEPEDFAVYYCQQASSYPLTFGQGTKVEIKR
notes: also called FS28-024-51
B2: FS22-053-008-AA/FS28-024-052 mAb^2 (bispecific antibody, human IgG1, kappa, L234A L235A, V domains shown)
VH: B1 VH with I102L
VL: B1 VL
notes: also called FS28-024-52
B3: FS22-053-008-AA/FS28-024-053 mAb^2 (bispecific antibody, human IgG1, kappa, L234A L235A, V domains shown)
VH: B1 VH with I102V
VL: B1 VL
notes: also called FS28-024-53
B4: FS22-053-008-AA/FS28-024-060 mAb^2 (bispecific antibody, human IgG1, kappa, L234A L235A, V domains shown)
VH: B1 VH with I102W
VL: B1 VL
B5: FS22-053-008-AA/FS28-026 mAb^2 (bispecific antibody, human IgG1, kappa, L234A L235A, V domains shown)
VH: EVQLLESGGGLVQPGGSLRLSCAASGFTFSNYAMTWVRQAPGKGLEWVSSITPYYSKTDYADSVKGRFTISRDNSKNTLYLQMNSLRAEDTAVYYCARNWYRFDYWGQGTLVTVSS
VL: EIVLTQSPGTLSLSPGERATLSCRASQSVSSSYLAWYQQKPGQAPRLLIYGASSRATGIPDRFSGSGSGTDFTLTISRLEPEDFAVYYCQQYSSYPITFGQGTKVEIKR
notes: also called FS28-026 (in mAb^2 format)
B6: FS22-053-008-AA/FS28-091 mAb^2 (bispecific antibody, human IgG1, kappa, L234A L235A, V domains shown)
VH: B5 VH with S30T, T35S, T52K, Y55D, S56G, K57N, D59Y, W100R, Y101W, R102V
VL: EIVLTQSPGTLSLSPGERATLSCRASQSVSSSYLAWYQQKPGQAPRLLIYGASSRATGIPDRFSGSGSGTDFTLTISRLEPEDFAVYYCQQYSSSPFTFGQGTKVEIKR
notes: also called FS28-091 (in mAb^2 format)
B7: FS22-053-008-AA/FS28-256 (bispecific antibody, human IgG1, kappa, L234A L235A, V domains shown)
VH: EVQLLESGGGLVQPGGSLRLSCAASGFTFTNTYMSWVRQAPGKGLEWVSNISPTYSTTNYADSVKGRFTISRDNSKNTLYLQMNSLRAEDTAVYYCARYNSYQGGLDYWGQGTLVTVSS
VL: B1 VL with A92S, S93Y, S94Y, L97I
B8: FS22-053-008-AA/FS28-256-001 mAb^2 (bispecific antibody, human IgG1, kappa, L234A L235A, V domains shown)
VH: B7 VH with N31E
VL: B1 VL with A92H, S93N, S94Q, L97N
B9: FS22-053-008-AA/FS28-256-005 mAb^2 (bispecific antibody, human IgG1, kappa, L234A L235A, V domains shown)
VH: B7 VH with N31E
VL: B1 VL with S93L, S94G, L97H
B10: FS22-053-008-AA/FS28-256-014 mAb^2 (bispecific antibody, human IgG1, kappa, L234A L235A, V domains shown)
VH: B7 VH with N31D, S101A, Q103A, G104A
VL: B1 VL with A92S, S93Y, S94Y, L97I
B11: FS22-053-008-AA/FS28-256-018 mAb^2 (bispecific antibody, human IgG1, kappa, L234A L235A, V domains shown)
VH: B7 VH with N31Q, S101A, G104I
VL: B1 VL with A92S, S93Y, S94Y, L97I

Experiments:
human MSLN-His-Avi [1] = target: T2, human MSLN-His-Avi (human, UniProt Q13421 296-598, single biotin (BirA) in the biotinylated form); assay: ratio of the two SPR KD
T2 construct: Monomeric, made in HEK293-6E; Used both immobilised and in solution; also called hMSLN-His-Avi; biotinylated hMSLN-His-Avi
T2 sequence (Q13421 other isoform, or with tags, fused parts or gaps): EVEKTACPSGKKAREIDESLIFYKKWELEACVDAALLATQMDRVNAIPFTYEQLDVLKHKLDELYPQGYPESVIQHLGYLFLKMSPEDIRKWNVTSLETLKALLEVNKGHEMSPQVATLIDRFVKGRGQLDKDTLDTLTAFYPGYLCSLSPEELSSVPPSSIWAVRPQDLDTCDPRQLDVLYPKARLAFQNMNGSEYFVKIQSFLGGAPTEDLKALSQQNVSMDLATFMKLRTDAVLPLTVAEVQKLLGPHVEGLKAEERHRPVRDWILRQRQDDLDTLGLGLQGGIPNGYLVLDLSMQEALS
Experimental: (§1) Human MSLN-His-Avi was immobilised on flow cell 2 on a CM5 Series S BIAcore sensor chip (GE Healthcare, BR100530) using an amine coupling kit (GE Healthcare, BR10050) to approximately 200 response units (RU). Flow cell 1 was left blank for subtraction. HEK293-6E supernatants or purified proteins were adjusted with HBS-EP+(GE Healthcare) to approximately 50 nM anti-MSLN mAb per sample. Samples were injected over flow cell 1 and 2 for 2.5 min at 30 μl/min and then allowed to dissociate in HBS-EP buffer for 2.5 min. Regeneration was achieved by injecting 10 mM glycine pH 1.5 (GE Healthcare, BR100354) for 30 seconds at a rate of 30 μl/min. Subtracted data (flow cell 2−flow cell 1) were analysed using BIAevaluation 3.2 Software (GE Healthcare).
(§2) Binding of the selected anti-MSLN clones in mAb² format, to recombinant human and cyno MSLN-His-Avi antigen was measured by SPR using a Biacore T200 processing unit (GE Healthcare). As previously described, it was desirable to bind more strongly to immobilised antigen than to soluble antigen. To assess the binding properties of the clones, binding kinetics to immobilised MSLN antigen were determined as described in section 2.1.2 and compared to the kinetics obtained when MSLN antigens in solution bound to captured clones.
(§3) For the capture experiments, clones in mAb² format were captured using a BIAcore sensor series S chip Protein G (GE Healthcare, 29179315). mAb² diluted in HBS-EP buffer (GE Healthcare, BR100188) containing 900 mM […] at 1 μg/ml, were injected individually on flow cell 2, 3 and 4 at 30 μl/min to achieve a response of approximately 100 RU. G1-AA/HeID1.3 was captured on flow cell 1. The recombinant human and cyno MSLN-His-Avi (section 1.1), diluted in HBS-EP buffer containing 900 mM […], were injected on flow cell 1, 2, 3 or 4 as appropriate at a concentration range of 1000 nM to 0.051 nM with 3-fold dilutions for 5 minutes at 70 μl/min and then allowed to dissociate in buffer for 5 minutes. Regeneration was achieved by injecting 10 mM glycine pH1.5 (GE Healthcare, BR100354) and surfactant P20 (GE Healthcare, BR-1000-54) for 20 seconds at a rate of 30 μl/min.

[2] = target: T3, cell surface human mesothelin (MSLN) (human, UniProt Q13421 296-598); assay: flow cytometry, NCI-H226 cells
T3 construct: whole, on cells; also called cell surface MSLN
T3 sequence (Q13421 other isoform, or with tags, fused parts or gaps limits assumed): as the sequence (Q13421 other isoform, or with tags, fused parts or gaps) above
Experimental: (§4) Cells were centrifuged at 1200 rpm for 3 min and resuspended in ice cold FACS buffer made up of DPBS (Life Technologies, 14190169) and 1% BSA (Sigma-Aldrich, A7906) at 2×10⁶ cells/ml and 50 μl per well was seeded in a 96-well V-bottom plate (Costar, 3894). All mAbs tested were diluted in FACS buffer in 120 μl at a concentration range of 0.01-200 nM (4-fold dilutions). The NCI-H226 cells were then centrifuged, supernatant removed and cells resuspended in 100 μl of each mAb dilution and incubated at 4° C. for 45 min. Cells were washed twice by centrifugation with 150 μl FACS buffer, resuspended in 100 μl containing goat anti-human IgG (γ-chain specific) F(ab′)2 fragment-R-Phycoerythrin antibody (Sigma, P8047) diluted 1:1000 in FACS buffer and incubated at 4° C. for 45 min. The cells were washed once with 150 μl FACS buffer and then with 150 μl DPBS, resuspended in 150 μl DPBS containing DAPI (Biotium, 40043) at 1:10.000 and read on the BDCantoll or iQue (Intellicyt). Data was analysed using FlowJo v10 to determine the signal geometric mean for PE for live cells in each well.
(§5) Cell binding assays using OVCAR-3 cells were performed similarly to the assays described in section 2.4. The effect of the presence of soluble MSLN was tested by pre-incubating the antibodies in the presence or absence of soluble MSLN before mixing with cells and determining if the pre-incubation affected binding to MSLN on the cell surface. […] 60 μl from each well was then added to either FACS buffer alone or to FACS buffer containing 60 μl of 40 nM recombinant hMSLN (R&D systems, 3265-MS-050) (to give a final concentration of 20 nM hMSLN) and pre-incubated at room temperature for 1 hour before 100 μl was added to the cells. Bound antibody was detected using goat anti-human anti-Fcγ Alexa-Fluor 488 (Jackson Immunoresearch, 109-546-098).
(§6) The method used was exactly as described in section 3.1.4.

human MSLN-His-Avi [3] = target: T2, human MSLN-His-Avi; assay: SPR (Biacore), MSLN immobilised, mAb^2 injected
Experimental: as §1, §2

[4] = target: T3, cell surface human mesothelin (MSLN); assay: flow cytometry, NCI-H226 cells + 20 nM soluble MSLN
Experimental: as §4, §5, §6

human MSLN-His-Avi [5] = target: T2, human MSLN-His-Avi; assay: SPR (Biacore), mAb^2 captured on Protein G, MSLN in solution injected
Experimental: as §2
as §3, with “μl/min. Subtracted data (flow cell 2−flow cell 1, flow cell 3−flow cell 1, or flow cell 4−flow cell 1) were analysed using BIAevaluation 3.2 Software (GE Healthcare) to identify binding using the model 1:1 binding, local Rmax and with refractive index (RI) constant 0.” for “μl/min.”

cynomolgus MSLN-His-Avi = target: T1, cynomolgus MSLN-His-Avi; assay: as above
Experimental: as §2
as §3, with “μl/min. Subtracted data (flow cell 2−flow cell 1, flow cell 3−flow cell 1, or flow cell 4−flow cell 1) were analysed using BIAevaluation 3.2 Software (GE Healthcare) to identify binding using the model 1:1 binding, local Rmax and with refractive index (RI) constant 0.” for “μl/min.”

Binder | Ratio of KD in solution/immobilised for human MSLN-His-Avi (human MSLN-His-Avi [1]) | EC50 [2] [nM] | Emax (MFI) [2] [MFI] | Kd (human MSLN-His-Avi [3]) [nM] | EC50 [4] [nM] | Emax (MFI) [4] [MFI] | Kd (human MSLN-His-Avi [5]) [nM] | Kd (cynomolgus MSLN-His-Avi) [nM]
B1 | 154 | 0.78 | 801000 | 0.31 | 7.47 | 1.1e+06 | 47.5 | 148
B2 | 92.3 | 1.32 | 958000 | 0.36 | 4.28 | 986000 | 33.1 | 185
B3 | 55.3 | 1.19 | 914000 | 0.89 | 7.52 | 965000 | 49.2 | 78.3
B4 | 78.6 | 1.46 | 1.01e+06 | 0.07 | 25.7 | 1.23e+06 | 5.2 | 266
B5 | 5000 | 1.91 | 730000 | 0.14 | 2.65 | 702000 | 700 | 886
B6 | 580 | 2.72 | 740000 | 1.1 | 3.97 | 745000 | 615 | > 1000
B7 | 37.5 | 15.8 | 276000 | 23.7 | 39.4 | 351000 | 889 | 738
B8 | – | 4.98 | 703000 | – | 5.36 | 608000 | – | –
B9 | – | 5.3 | 760000 | – | 3.91 | 654000 | – | –
B10 | – | 3.11 | 771000 | – | 2.72 | 616000 | – | –
B11 | – | 6.98 | 637000 | – | 4.6 | 494000 | – | –
